# In patent US20050226876A1 (Hoffmann-La Roche, published 2005):
# T1: cynomologus P-selectin (on thrombin-activated cynomologus platelets) (cynomologus monkey)
# T1 chain: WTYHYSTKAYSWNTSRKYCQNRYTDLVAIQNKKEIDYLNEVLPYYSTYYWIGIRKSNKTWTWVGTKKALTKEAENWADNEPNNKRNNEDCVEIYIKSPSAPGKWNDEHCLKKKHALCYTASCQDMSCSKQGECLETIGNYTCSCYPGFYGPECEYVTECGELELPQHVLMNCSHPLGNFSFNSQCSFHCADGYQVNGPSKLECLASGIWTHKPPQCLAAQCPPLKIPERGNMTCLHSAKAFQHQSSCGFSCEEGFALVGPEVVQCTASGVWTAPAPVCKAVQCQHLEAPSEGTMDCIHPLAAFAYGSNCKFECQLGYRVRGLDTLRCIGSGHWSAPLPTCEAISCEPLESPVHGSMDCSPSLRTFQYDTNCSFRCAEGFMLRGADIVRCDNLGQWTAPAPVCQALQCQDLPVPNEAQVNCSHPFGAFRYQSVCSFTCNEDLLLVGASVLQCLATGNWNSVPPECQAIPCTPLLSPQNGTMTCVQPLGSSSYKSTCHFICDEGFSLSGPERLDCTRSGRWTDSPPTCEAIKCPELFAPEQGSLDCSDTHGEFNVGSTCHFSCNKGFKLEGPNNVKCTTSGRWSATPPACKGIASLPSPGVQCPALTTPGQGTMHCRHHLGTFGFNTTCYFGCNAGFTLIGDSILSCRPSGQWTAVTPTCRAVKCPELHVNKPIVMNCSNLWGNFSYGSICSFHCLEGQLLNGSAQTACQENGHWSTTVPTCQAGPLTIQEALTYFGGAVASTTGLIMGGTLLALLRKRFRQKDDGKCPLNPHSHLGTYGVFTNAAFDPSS
# T2: E-selectin on E-selectin-CHO transfectants (UniProt P16581 22-610, limits assumed)
# T2 construct: whole, on cells; also called E-selectin-CHO cells; E-selectin transfectants
# T2 sequence (looked up): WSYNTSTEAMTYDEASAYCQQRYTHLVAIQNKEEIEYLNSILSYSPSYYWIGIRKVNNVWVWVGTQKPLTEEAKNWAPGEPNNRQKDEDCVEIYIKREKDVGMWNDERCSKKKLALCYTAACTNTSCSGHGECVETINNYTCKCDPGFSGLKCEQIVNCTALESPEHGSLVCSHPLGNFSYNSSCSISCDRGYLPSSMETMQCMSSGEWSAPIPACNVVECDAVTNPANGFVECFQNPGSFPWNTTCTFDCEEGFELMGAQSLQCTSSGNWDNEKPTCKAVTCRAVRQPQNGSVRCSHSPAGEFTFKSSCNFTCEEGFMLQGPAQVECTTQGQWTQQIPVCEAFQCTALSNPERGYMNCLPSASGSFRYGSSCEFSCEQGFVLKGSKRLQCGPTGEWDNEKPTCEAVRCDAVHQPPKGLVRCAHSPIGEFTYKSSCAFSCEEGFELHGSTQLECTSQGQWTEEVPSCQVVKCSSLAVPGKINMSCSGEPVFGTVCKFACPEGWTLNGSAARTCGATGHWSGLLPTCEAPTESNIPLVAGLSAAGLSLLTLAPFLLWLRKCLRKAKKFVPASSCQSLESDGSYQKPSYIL
# T3: P-selectin on thrombin-activated human platelets (human, UniProt P16109 42-830)
# T3 sequence (looked up): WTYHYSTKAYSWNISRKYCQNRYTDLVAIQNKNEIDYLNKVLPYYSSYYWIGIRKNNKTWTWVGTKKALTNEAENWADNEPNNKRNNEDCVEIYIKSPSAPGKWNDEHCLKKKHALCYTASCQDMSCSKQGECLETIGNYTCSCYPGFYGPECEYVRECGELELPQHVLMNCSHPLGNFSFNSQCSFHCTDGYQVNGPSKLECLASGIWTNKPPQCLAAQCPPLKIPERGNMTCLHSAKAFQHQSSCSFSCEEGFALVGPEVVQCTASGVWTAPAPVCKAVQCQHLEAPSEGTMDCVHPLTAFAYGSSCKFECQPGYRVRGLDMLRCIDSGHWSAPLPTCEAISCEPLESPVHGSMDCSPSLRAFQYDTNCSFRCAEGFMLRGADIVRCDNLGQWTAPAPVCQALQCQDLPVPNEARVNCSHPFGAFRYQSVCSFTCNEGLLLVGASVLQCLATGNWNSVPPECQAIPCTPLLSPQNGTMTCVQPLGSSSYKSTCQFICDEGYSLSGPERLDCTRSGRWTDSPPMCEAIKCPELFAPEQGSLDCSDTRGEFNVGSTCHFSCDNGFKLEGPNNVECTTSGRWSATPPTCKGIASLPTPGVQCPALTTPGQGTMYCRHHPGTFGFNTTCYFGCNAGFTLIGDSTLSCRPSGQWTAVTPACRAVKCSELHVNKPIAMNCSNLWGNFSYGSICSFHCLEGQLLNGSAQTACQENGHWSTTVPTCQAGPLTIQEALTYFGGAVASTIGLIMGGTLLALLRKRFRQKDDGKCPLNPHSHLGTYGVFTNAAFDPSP
# What was measured:
# [1] = molecular target: T4, Fcγ receptor on human NK cells (FcγRIII) (human, UniProt P08637 17-254); assay: FACS on NK cells from human blood
# T4 construct: whole, on cells; also called FcγR presented on NK cells
# [2] = molecular target: T1, cynomologus P-selectin (on …); assay: cell-based or functional assay
# [3] = molecular target: T5, human complement factor C3 (from human pooled serum) (human, UniProt P01024 23-1663, limits assumed); assay: C3 ELISA, antibody coated, human pooled serum; background OD405 0.098
# T5 construct: The ELISA detects C3 (C3c) deposited on the coated antibody out of serum; also called C3c
# Method: (§1) In principle, the ELISA plate is coated with concentration ranges of the antibody, to which human C1q or human pooled serum, as a source of C3, is added. C1q or […] binding is detected by an antibody directed against human C1q or […] followed by a peroxidase-labeled conjugate.
# [4] = molecular target: T2, E-selectin on E-selectin-CHO …; assay: cell-based ELISA on E-selectin-CHO transfectants, OD405
# Method: In the cell-based ELISA P— and E-selectin-CHO-transfectants, after detaching the cells with cell-dissociation solution (Sigma C5914), were seeded into each well of 96 well plates (TC Microwell F96 Nunc 167008) adjusted to 100,000 cells/well and cultivated in respective media overnight at 37° C. (medium for P— CHO-transfectants: DMEM+10% FCS+2 mM Glutamine+Penicillin 100 U/ml/Streptomycin 100 μg/ml; medium for E-selctin transfecttants: HAM F-12+10% FCS+2 mM Glutamine+Penicillin 100 U/ml/Streptomycin 100 μg/ml+0.1% Fungizone+100 μg/ml Neomycin). […] After washing the wells (4 times), the bound antibodies were detected using the same steps as mentioned above for the cell-free ELISA.
# [5] = molecular target: T6, human complement factor C1q (human, UniProt P02745 23-245; P02746 28-253; P02747 29-245); assay: C1q ELISA, antibody coated 0.16-20 µg/ml
# T6 construct: also called Clq
# Method: as §1
# [6] = molecular target: T3, P-selectin on thrombin-activated human …; assay: cell-based or functional assay
# T4 sequence (P08637 17-254): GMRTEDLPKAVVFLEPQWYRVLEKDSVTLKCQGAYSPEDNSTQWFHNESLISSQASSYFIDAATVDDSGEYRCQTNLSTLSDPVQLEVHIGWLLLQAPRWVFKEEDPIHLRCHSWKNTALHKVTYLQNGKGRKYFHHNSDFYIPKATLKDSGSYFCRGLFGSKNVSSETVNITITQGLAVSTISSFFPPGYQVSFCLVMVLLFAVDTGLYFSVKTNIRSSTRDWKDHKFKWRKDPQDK
# T6 sequence (P02745 23-245 limits assumed, chain 1 of 3): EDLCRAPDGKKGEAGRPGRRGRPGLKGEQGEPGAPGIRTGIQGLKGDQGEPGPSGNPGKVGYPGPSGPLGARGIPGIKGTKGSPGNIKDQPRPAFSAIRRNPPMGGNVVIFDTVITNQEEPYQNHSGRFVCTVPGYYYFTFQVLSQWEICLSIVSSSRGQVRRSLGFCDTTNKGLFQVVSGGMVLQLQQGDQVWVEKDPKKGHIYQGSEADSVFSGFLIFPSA
# T6 sequence (P02746 28-253 limits assumed, chain 2 of 3): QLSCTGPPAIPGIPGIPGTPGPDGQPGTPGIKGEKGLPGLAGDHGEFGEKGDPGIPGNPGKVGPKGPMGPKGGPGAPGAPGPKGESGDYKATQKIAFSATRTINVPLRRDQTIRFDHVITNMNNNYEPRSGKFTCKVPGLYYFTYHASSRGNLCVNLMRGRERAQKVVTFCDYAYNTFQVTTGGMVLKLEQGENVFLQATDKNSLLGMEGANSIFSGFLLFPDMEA
# T6 sequence (P02747 29-245 limits assumed, chain 3 of 3): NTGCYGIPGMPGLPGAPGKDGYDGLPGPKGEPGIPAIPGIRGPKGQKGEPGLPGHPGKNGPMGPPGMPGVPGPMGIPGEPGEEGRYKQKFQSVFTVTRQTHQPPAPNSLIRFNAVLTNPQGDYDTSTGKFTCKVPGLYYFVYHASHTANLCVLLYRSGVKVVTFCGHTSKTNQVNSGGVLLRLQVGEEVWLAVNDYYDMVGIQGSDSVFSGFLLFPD
# T5 sequence (P01024 23-1663 limits assumed): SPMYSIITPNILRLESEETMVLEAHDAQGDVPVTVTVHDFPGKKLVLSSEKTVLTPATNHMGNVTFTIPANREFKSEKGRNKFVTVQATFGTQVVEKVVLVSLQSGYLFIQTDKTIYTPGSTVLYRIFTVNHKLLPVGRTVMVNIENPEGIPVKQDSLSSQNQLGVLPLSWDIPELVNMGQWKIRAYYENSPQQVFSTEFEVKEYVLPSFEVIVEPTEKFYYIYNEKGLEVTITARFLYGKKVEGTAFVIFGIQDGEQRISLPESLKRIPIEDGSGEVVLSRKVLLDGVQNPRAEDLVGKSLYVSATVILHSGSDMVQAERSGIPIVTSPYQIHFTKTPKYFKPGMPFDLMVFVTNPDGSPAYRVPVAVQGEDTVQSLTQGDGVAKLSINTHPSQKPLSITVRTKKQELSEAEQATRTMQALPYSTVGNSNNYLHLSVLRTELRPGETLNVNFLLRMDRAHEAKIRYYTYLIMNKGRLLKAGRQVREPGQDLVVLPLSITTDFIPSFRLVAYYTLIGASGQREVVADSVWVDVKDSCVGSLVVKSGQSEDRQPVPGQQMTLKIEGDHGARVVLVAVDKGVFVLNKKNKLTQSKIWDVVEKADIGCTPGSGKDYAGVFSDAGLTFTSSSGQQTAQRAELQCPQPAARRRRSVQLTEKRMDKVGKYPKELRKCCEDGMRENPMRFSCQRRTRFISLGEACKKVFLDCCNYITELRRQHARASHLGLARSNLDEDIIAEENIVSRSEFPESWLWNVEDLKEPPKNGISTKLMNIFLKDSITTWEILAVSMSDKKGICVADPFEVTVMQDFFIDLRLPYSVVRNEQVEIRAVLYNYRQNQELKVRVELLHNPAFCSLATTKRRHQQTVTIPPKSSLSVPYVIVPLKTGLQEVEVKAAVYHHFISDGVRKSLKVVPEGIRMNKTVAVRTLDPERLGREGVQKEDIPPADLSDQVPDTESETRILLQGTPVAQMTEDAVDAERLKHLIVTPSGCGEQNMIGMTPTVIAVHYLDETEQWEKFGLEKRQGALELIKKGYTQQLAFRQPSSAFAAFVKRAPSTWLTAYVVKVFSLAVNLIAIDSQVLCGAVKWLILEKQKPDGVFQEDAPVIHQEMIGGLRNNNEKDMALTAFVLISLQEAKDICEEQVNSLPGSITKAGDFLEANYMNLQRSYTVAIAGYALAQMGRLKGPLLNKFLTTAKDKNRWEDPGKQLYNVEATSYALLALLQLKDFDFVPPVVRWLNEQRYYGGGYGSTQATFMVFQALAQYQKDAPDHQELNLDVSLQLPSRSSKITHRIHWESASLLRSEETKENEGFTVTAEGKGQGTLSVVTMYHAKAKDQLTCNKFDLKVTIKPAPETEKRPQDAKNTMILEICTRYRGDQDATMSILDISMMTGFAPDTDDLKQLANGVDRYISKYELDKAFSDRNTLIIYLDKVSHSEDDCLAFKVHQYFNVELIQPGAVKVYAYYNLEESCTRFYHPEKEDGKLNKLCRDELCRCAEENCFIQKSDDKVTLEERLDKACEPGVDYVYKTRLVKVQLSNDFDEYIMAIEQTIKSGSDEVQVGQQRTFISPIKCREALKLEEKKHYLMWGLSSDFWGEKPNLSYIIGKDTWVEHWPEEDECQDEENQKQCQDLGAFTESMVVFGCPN
binder,measurement,setting,value
"HuMab 002 Fc variant IgG1v1 (PVA-236; GLPSS331: E233P; L234V; L235A; delta G236; A327G; A330S; P331S) (antibody, copies: 2 + 2) heavy: EVQLVESGGGLVRPGGSLRLSCAASGFTFSNYDMHWVRQATGKGLEWVSAITAAGDIYYPGSVKGRFTISRENAKNSLYLQMNSLRAGDTAVYYCARGRYSGSGSYYNDWFDPWGQGTLVTVSSASTKGPSVFPLAPSSKSTSGGTAALGCLVKDYFPEPVTVSWNSGALTSGVHTFPAVLQSSGLYSLSSVVTVPSSSLGTQTYICNVNHKPSNTKVDKKVEPKSCDKTHTCPPCPAPPVAGPSVFLFPPKPKDTLMISRTPEVTCVVVDVSHEDPEVKFNWYVDGVEVHNAKTKPREEQYNSTYRVVSVLTVLHQDWLNGKEYKCKVSNKGLPSSIEKTISKAKGQPREPQVYTLPPSRDELTKNQVSLTCLVKGFYPSDIAVEWESNGQPENNYKTTPPVLDSDGSFFLYSKLTVDKSRWQQGNVFSCSVMHEALHNHYTQKSLSLSPGK light: not shown",binding result,[1],no binding (tested: 10 µg/ml)
same,"IC50 (read off the curve), rosetting assay with thrombin-activated cynomologus platelets and HL60 cells",[2],~0.2 µg/ml
same,Bmax (OD405 at 10 µg/ml),[3],0.156 OD405
same,binding result,[4],no binding (tested: 100 µg/ml)
same,binding result,[5],no binding
same,"IC50 (read off the curve), rosetting assay with thrombin-activated human platelets and HL60 cells",[6],~0.08 µg/mL
